{"source": "paper PMC12524660", "origin": "cited, not measured here", "biological_target": "Cys156 (UniProt position 156, VSNASCTTNCL)"}
{"substance": "Cytosolic NAD-dependent glyceraldehyde-3-phosphate dehydrogenase C1 (GAPC1) (Arabidopsis thaliana)", "values": [{"measurement": "pKa", "value": "below pH 6"}]}
